The target of data set [1] is T1, AtERF96 WT (Arabidopsis thaliana, UniProt Q9LSX0 1-131). The data set is described as follows: X-ray crystallography.
Data set [2] addresses T1, AtERF96 WT. The data set is described as follows: EMSA.

T1 sequence (Q9LSX0 whole entry): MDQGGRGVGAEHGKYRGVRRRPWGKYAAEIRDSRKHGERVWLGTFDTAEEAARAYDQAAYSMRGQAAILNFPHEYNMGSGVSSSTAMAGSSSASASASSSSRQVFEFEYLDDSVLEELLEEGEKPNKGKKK

B1: GCC11 (crystal) (dsDNA)
DNA 1: TAGCCGCCAGC
DNA 2: GCTGGCGGCTA
With B1, the binding result with AtERF96 WT [1] was “binds”.

B2: GCC11 probe (dsDNA)
DNA 1: TAGCCGCCAGC
DNA 2: GCTGGCGGCTA
As to B2, the binding result with AtERF96 WT [2] is on record as “binds”.

The values above are taken from paper doi:10.1101/302299.
